Assay results published in paper PMC3905715 (Nature Communications, 2013).

B3: mouse ZNRF3 ectodomain (mZNRF3ecto, K53-L205) (domain or fragment, UniProt Q5SSZ7 53-205, looked up)
chain: KETAFVEVVLFESSPSGDYTTHTTGLTGRFSRAGAMLSAEGEIVQMHPLGLCNNNDEEDLYEYGWVGVVKLEQPELDPKPCLTVLGKAKRAVQRGATAVIFDVSENPEAIDQLNQGSEDPLKRPVVYVKGADAIKLMNIVNKQKVARARIQHL
notes: ZNRF3 ectodomain, mouse, residues K53-L205; pHLsec vector; used for crystals, ultracentrifugation and as SPR analyte; also called wt mZNRF3_(ecto); source: HEK293T, secreted, purified (HisTrap, gel filtration)

Assays:
[1] = target: Rspo Fu1–Fu2 chimera: Fu1 of Rspo4 with Fu2 of a 'strong' Rspo (mouse | not stated); assay: SPR; binding of Rspo Fu1–Fu2 chimeras to ZNRF3ecto
[2] = target: T1, preformed hLGR5ecto,lr × mRspo2 Fu1–Fu2 complex, O75473; assay: SPR; conditions: chain shown with the change
T1 chain 1: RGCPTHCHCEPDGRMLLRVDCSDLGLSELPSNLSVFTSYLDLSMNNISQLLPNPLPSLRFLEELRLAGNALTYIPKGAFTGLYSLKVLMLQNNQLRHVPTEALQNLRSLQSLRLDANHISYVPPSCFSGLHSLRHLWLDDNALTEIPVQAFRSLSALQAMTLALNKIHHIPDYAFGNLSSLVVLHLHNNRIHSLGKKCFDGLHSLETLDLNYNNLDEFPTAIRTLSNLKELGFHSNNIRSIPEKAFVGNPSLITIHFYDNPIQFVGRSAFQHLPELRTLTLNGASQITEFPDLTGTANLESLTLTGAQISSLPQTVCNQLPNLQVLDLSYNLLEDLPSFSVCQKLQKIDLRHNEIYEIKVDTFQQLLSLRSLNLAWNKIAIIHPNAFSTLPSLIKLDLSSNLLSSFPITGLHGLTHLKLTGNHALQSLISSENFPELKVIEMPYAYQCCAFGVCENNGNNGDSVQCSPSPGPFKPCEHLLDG
T1 chain 2: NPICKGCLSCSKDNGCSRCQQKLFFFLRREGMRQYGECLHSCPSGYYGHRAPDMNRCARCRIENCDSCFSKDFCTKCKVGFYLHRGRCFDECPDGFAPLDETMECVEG

[3] = target: the molecule itself; assay: crystal structure; X-ray, sitting drop vapour diffusion; apo proteins and complexes in several crystal forms
[4] = target: T2, hRSPO3 (Homo sapiens (Human), UniProt Q9BXY4); assay: SPR equilibrium, RSPO Fu1-Fu2 immobilised
T2 chain: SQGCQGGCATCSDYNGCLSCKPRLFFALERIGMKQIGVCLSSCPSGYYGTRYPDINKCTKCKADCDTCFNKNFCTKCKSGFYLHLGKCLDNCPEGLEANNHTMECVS

[5] = target: T3, hRSPO1 (Homo sapiens (Human), UniProt Q2MKA7); assay: SPR equilibrium, RSPO Fu1-Fu2 immobilised
T3 chain: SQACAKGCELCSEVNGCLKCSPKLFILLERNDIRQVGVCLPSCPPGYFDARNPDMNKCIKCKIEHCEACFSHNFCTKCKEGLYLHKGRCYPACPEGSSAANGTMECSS

[6] = target: T4, human LGR5 ectodomain (hLGR5ecto, R32-G557), immobilised for SPR (human, UniProt O75473 32-557); assay: SPR; hLGR5ecto (R32-G557) immobilised; injections of 10 μM solutions step by step, and saturation with the preformed mZNRF3ecto × mRSPO2 complex (single dilution series); conditions: both partners purified
T4 construct: LGR5 ectodomain, human, residues R32-G557; the methods describe biotinylated variants on streptavidin
T4 sequence (looked up): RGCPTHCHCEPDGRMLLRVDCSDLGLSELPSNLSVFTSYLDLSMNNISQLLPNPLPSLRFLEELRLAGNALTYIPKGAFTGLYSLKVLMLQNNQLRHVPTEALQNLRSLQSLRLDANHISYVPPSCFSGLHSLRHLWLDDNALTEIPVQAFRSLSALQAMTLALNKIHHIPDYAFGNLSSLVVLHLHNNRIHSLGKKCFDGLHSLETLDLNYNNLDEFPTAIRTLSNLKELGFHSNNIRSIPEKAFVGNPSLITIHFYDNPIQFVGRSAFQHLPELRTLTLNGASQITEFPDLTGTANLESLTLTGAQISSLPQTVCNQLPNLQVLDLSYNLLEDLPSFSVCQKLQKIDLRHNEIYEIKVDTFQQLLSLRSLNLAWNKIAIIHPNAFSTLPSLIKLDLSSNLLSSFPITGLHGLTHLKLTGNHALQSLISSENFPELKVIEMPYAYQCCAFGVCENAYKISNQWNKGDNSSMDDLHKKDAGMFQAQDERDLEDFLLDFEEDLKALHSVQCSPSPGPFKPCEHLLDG

[7] = target: T5, human LGR5 ectodomain (hLGR5ecto, R32-G557), immobilised for SPR (human, UniProt O75473 32-557); assay: SPR
T5 chain: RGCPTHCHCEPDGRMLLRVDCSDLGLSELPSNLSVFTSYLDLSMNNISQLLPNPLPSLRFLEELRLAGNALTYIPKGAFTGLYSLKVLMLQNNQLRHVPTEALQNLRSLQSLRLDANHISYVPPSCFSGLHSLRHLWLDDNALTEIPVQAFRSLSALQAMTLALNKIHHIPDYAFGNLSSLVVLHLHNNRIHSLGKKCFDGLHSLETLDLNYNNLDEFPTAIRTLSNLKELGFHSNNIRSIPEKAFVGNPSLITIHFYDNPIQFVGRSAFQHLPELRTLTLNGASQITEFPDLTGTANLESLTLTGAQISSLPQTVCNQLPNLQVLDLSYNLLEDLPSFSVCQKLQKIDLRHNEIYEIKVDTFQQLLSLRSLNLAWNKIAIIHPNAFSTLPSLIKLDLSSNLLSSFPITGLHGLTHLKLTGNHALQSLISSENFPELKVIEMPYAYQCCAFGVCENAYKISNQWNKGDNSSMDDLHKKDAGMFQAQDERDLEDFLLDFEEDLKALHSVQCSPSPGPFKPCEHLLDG

[8] = target: T6, mZNRF3ecto M98T (Mus musculus); assay: SPR
T6 chain: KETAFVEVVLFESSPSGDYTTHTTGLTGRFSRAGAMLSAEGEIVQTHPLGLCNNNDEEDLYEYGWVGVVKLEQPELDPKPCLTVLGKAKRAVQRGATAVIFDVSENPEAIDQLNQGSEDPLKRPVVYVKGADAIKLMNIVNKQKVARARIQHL

[9] = target: T4, human LGR5 ectodomain (hLGR5ecto, …); assay: SPR; binding of Rspo Fu1–Fu2 proteins and chimeras to hLGR5ecto; single dilution series; conditions: both partners purified
[10] = target: B3; assay: SPR; mZNRF3ecto as analyte, biotinylated Rspo variants immobilised on streptavidin; equilibrium, 25 °C, 10 mM HEPES/NaOH pH 7.5, 150 mM NaCl, 0.005% Tween20; Biacore T200; conditions: both partners purified
[11] = target: T7, mouse Rspo2 Fu1–Fu2 (mRspo2Fu1–Fu2, N37 or I39-G144), His10; assay: SPR; conditions: chain shown with the change
T7 chain: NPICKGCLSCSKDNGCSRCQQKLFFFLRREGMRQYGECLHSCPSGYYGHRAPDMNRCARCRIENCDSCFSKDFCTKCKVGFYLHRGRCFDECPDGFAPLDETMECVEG

For “mouse ZNRF3 ectodomain (mZNRF3ecto, K53-L205) (from UniProt Q5SSZ7 53-205) (domain or fragment)”, the Kd [1] was 3600 nM.

B1: mouse ZNRF3 ectodomain (K53-L205), biotinylated, immobilised for SPR, Q5SSZ7 E92N; E94T (protein)
chain: KETAFVEVVLFESSPSGDYTTHTTGLTGRFSRAGAMLSANGTIVQMHPLGLCNNNDEEDLYEYGWVGVVKLEQPELDPKPCLTVLGKAKRAVQRGATAVIFDVSENPEAIDQLNQGSEDPLKRPVVYVKGADAIKLMNIVNKQKVARARIQHL
B1 showed a Kd [2] of 3500 nM.

B2: mZNRF3ecto S90C (spontaneously disulphide cross-linked dimer) (domain or fragment, mouse, UniProt Q5SSZ7 53-205, looked up)
chain: KETAFVEVVLFESSPSGDYTTHTTGLTGRFSRAGAMLCAEGEIVQMHPLGLCNNNDEEDLYEYGWVGVVKLEQPELDPKPCLTVLGKAKRAVQRGATAVIFDVSENPEAIDQLNQGSEDPLKRPVVYVKGADAIKLMNIVNKQKVARARIQHL
notes: ZNRF3 ectodomain, mouse; limits K53-L205 as stated for mZNRF3ecto; probably as m1; also called S90C variant of mZNRF3_(ecto); predimerized mZNRF3_(ecto) S90C
B2: binds [3].

With B3 the Kd [4] was 60 nM, the Kd [5] was 6800 nM and the binding result [6] was “binds”.

B4: mouse ZNRF3 ectodomain (K53-L205), biotinylated, immobilised for SPR, Q5SSZ7 S90C (protein)
chain: KETAFVEVVLFESSPSGDYTTHTTGLTGRFSRAGAMLCAEGEIVQMHPLGLCNNNDEEDLYEYGWVGVVKLEQPELDPKPCLTVLGKAKRAVQRGATAVIFDVSENPEAIDQLNQGSEDPLKRPVVYVKGADAIKLMNIVNKQKVARARIQHL
For B4, the Kd [2] was 206 nM.

B5: mouse Rspo2 Fu1–Fu2 (mRspo2Fu1–Fu2, N37 or I39-G144), His10 (domain or fragment)
chain: NPICKGCLSCSKDNGCSRCQQKLFFFLRREGMRQYGECLHSCPSGYYGHRAPDMNRCARCRIENCDSCFSKDFCTKCKVGFYLHRGRCFDECPDGFAPLDETMECVEG
B5 gave a Kd [7] of 14 nM.

B6: mouse Rspo2 Fu1–Fu2 (mRspo2Fu1–Fu2, N37 or I39-G144), His10 (domain or fragment)
chain: NPICKGCLSCSKDNGCSRCQQKLFFFLRREGMRQYGECLHSCPSGYYGHRAPDMNRCARCRIENCDSCFSKDFCTKCKVGFYLHRGRCFDECPDGFAPLDETMECVEG
modifications: biotin at C-terminal BirA tag, immobilised; disulphide
B6 gave a Kd [8] of 1500 nM.

B7: mR42 (protein)
chain: TGLGGNCTGCVICSEENGCSTCQQRLFLFIRREGIRQYGKCVHDCPLGFFGIRGQEANRCKKCRIENCDSCFSKDFCTKCKVGFYLHRGRCFDECPDGFAPLDETMECVEG
modifications: Chimera read from its name as Rspo4 Fu1 + Rspo2 Fu2. Junction not printed: set by convention after the residue aligned with Rspo2 R95. Disulphides
B7 gave a Kd [7] of 240 nM.

B8: mouse Rspo4 Fu1–Fu2 (T29-Q136) (domain or fragment, UniProt Q8BJ73 29-136, looked up)
chain: TGLGGNCTGCVICSEENGCSTCQQRLFLFIRREGIRQYGKCVHDCPLGFFGIRGQEANRCKKCGATCESCFSQDFCIRCKRRFHLYKGKCLPSCPPGTLTHQSTRECQ
modifications: biotin at the C-terminal BirA recognition sequence (as immobilised ligand in Figure 4b)
notes: R-spondin 4, mouse, Fu1-Fu2, residues T29-Q136; also called mRspo4; mRspo4Fu1–Fu2
In the case of B8, the Kd [7] is reported as 73 nM, the binding result [9] is reported as “binds” and the Kd [10] is reported as 300000 nM.

B9: human RNF43 ectodomain (hRNF43ecto, Q44-L188), biotinylated, immobilised for SPR, Q68DV7 K108N (protein)
chain: QKAIIRVIPLKMDPTGKLNLTLEGVFAGVAEITPAEGKLMQSHPLYLCNASDDDNLEPGFISIVNLESPRRAPRPCLSLASKARMAGERGASAVLFDITEDRAAAEQLQQPLGLTWPVVLIWGNDAEKLMEFVYKNQKAHVRIEL
For B9, the Kd [11] was 62 nM.

B10: human RNF43 ectodomain (hRNF43ecto, Q44-L188), biotinylated, immobilised for SPR, Q68DV7 L82S (protein)
chain: QKAIIRVIPLKMDPTGKLNLTLEGVFAGVAEITPAEGKSMQSHPLYLCNASDDDNLEPGFISIVKLESPRRAPRPCLSLASKARMAGERGASAVLFDITEDRAAAEQLQQPLGLTWPVVLIWGNDAEKLMEFVYKNQKAHVRIEL
With B10 the Kd [11] was 78 nM.

B11: human Rspo3 Fu1–Fu2 (R32-H147), immobilised for SPR (domain or fragment, UniProt Q9BXY4 32-147, looked up)
chain: RMHPNVSQGCQGGCATCSDYNGCLSCKPRLFFALERIGMKQIGVCLSSCPSGYYGTRYPDINKCTKCKADCDTCFNKNFCTKCKSGFYLHLGKCLDNCPEGLEANNHTMECVSIVH
modifications: biotin at the C-terminal BirA recognition sequence
notes: R-spondin 3, human, Fu1-Fu2, residues R32-H147; also called hRspo3
B11: binds [10].

B12: human Rspo1 Fu1–Fu2 (I32-S143), immobilised for SPR (domain or fragment, UniProt Q2MKA7 32-143, looked up)
chain: ISAEGSQACAKGCELCSEVNGCLKCSPKLFILLERNDIRQVGVCLPSCPPGYFDARNPDMNKCIKCKIEHCEACFSHNFCTKCKEGLYLHKGRCYPACPEGSSAANGTMECS
modifications: biotin at the C-terminal BirA recognition sequence
notes: R-spondin 1, human, Fu1-Fu2, residues I32-S143; also called hRspo1
B12: binds [10].
